The source of these data is patent US20210087265A1 (PROGASTRINE ET CANCERS S R L, published 2021).

To fix the notation:
B1: mAb16 (antibody, V domains shown)
VH: QVQLQQSGAELVKPGASVKLSCKASGYTFTSYYMYWVKQRPGQGLEWIGEINPSNGGTNFNEKFKSKATLTVDKSSSTAYMQLSSLTSEDSAVYYCTRGGYYPFDYWGQGTTLTVSS
VL: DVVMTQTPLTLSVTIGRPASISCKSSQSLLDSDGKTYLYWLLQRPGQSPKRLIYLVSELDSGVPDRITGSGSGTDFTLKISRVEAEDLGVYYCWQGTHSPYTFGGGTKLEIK
notes: Murine monoclonal antibody from a hybridoma; also called hybridoma 1E9D9B6
B2: mAb3 (antibody, V domains shown)
VH: EVQLQQSGTVLARPGASVKMSCKASGYIFTSYWVHWVKQRPGQGLEWIGGFYPGNSDSRYNQKFKGKATLTAVTSASTAYMDLSSLTNEDSAVYFCTRRDSPQYWGQGTTLTVSS
VL: DVLMTQTPLSLPVSLGDQASISCRSSQSIVHSNGNTYLEWYLQKPGQSPKLLIYKVSNRFSGVPDRFSGSGSGTDFTLKISRLEAEDLGVYYCFQGSHVPFTFGGGTKLEIK
notes: Murine monoclonal antibody from a hybridoma; also called hybridoma 6B5B11C10
B3: mAb19 (antibody, V domains shown)
VH: DVQLQESGPGLVKPSQSLSLTCTVTGYSITSDYAWNWIRQFPGNKLEWMGYISFSGYTSYNPSLKSRISVTRDTSRNQFFLQLTSVTTEDTATYYCAREVNYGDSYHFDYWGQGTIVTVSS
VL: QLALTQSSSASFSLGASAKLTCTLSSQHRTYTIEWYQQQSLKPPKYVMEVKKDGSHSTGHGIPDRFSGSSSGADRYLSISNIQPEDEAIYICGVGDAIKGQSVFVFGGGTKVTVL
notes: Murine monoclonal antibody from a hybridoma; also called hybridoma 1B3B4F11
B4: mAb4 (antibody, V domains shown)
VH: QVQLQQSGAELMKPGASVKISCKATGYTFSSSWIEWLKQRPGHGLEWIGEFLPGSGSTDYNEKFKGKATFTADTSSDTAYMLLSSLTSEDSAVYYCATDGNYDWFAYWGQGTLVTVSA
VL: DLVMTQTPLSLPVSLGDQASISCRSSQSLVHSSGVTYLHWYLQKPGQSPKLLIYKVSNRFSGVPDRFSGSGSGTDFTLKISRVEAEDLGVYFCSQSTHVPPTFGSGTKLEIK
notes: Murine monoclonal antibody from a hybridoma; also called hybridoma 20D2C3G2
B5: mAb13 (antibody, V domains shown)
VH: EVQLVESGGGLVQPGGSLKLSCAASGFIFSSYGMSWVRQSPDRRLELVASINTFGDRTYYPDSVKGRFTISRDNAKNTLYLQMTSLKSEDTAIYYCARGTGTYWGQGTTLTVSS
VL: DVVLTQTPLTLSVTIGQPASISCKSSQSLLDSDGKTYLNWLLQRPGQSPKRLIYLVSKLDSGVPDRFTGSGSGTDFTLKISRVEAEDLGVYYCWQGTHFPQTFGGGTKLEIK
notes: Murine monoclonal antibody from a hybridoma; also called hybridoma 2C6C3C7

In this experiment the target is T1, human progastrin (human, UniProt P01350 22-101).
T1 construct: 80-residue progastrin, i.e. preprogastrin (AAB19304.1) without its 21-residue signal peptide; also called hPG; PG
T1 sequence: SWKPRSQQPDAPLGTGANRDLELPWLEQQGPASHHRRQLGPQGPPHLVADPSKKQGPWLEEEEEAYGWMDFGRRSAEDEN
As to the kind of experiment: epitope mapping (method not described).
On to B1, for which the binding result is “binds”. In the case of B2, the binding result is “binds”. For the molecule B3, the binding result is recorded as “binds”.

Take B4: the binding result is given as “binds”. On to B5, for which the binding result was “binds”.
